According to article PMC7784689, “Structural mechanism of phospholipids translocation by MlaFEDB complex” (Cell Research, 2020):
Positions count from the first letter of the chain named.

B1: MlaD (natural protein, E. coli K-12, UniProt P64604 1-183, looked up)
chain: MQTKKNEIWVGIFLLAALLAALFVCLKAANVTSIRTEPTYTLYATFDNIGGLKARSPVSIGGVVVGRVADITLDPKTYLPRVTLEIEQRYNHIPDTSSLSIRTSGLLGEQYLALNVGFEDPELGTAILKDGDTIQDTKSAMVLEDLIGQFLYGSKGDDNKNSGDAPAAAPGNNETTEPVGTTK
notes: expressed from the full mlaFEDCB operon amplified from genomic DNA; Homo-hexamer within the 2:2:6:2 MlaFEDB complex
B2: MlaE (natural protein, E. coli K-12, UniProt P64606 1-260, looked up)
chain: MLLNALASLGHKGIKTLRTFGRAGLMLFNALVGKPEFRKHAPLLVRQLYNVGVLSMLIIVVSGVFIGMVLGLQGYLVLTTYSAETSLGMLVALSLLRELGPVVAALLFAGRAGSALTAEIGLMRATEQLSSMEMMAVDPLRRVISPRFWAGVISLPLLTVIFVAVGIWGGSLVGVSWKGIDSGFFWSAMQNAVDWRMDLVNCLIKSVVFAITVTWISLFNGYDAIPTSAGISRATTRTVVHSSLAVLGLDFVLTALMFGN
notes: MlaE, the transmembrane (permease) subunit of the MlaFEDB ABC transporter, E. coli K-12; expressed from the full mlaFEDCB operon amplified from genomic DNA; Homodimer within the 2:2:6:2 MlaFEDB complex; also called TMD protein MlaE
B3: MlaF (natural protein, E. coli K-12, UniProt P63386 1-269, looked up)
chain: MEQSVANLVDMRDVSFTRGNRCIFDNISLTVPRGKITAIMGPSGIGKTTLLRLIGGQIAPDHGEILFDGENIPAMSRSRLYTVRKRMSMLFQSGALFTDMNVFDNVAYPLREHTQLPAPLLHSTVMMKLEAVGLRGAAKLMPSELSGGMARRAALARAIALEPDLIMFDEPFVGQDPITMGVLVKLISELNSALGVTCVVVSHDVPEVLSIADHAWILADKKIVAHGSAQALQANPDPRVRQFLDGIADGPVPFRYPAGDYHADLLPGS
notes: expressed from the full mlaFEDCB operon amplified from genomic DNA; Homodimer within the 2:2:6:2 MlaFEDB complex; also called NBD protein MlaF
B4: MlaF E170Q (natural protein, E. coli K-12, UniProt P63386 1-269, looked up)
chain: B3 chain with E170Q
notes: MlaF, E. coli K-12, with the catalytic glutamate of Walker B changed to glutamine; expressed from the full mlaFEDCB operon; PDB 7CGE holds the wild-type parent; also called MlaFEQ; EQ mutant; source: E. coli C43(DE3), co-expressed from mutated pET20b-mlaFEDCB, purified as MlaFEQEDB, in nanodisc

How the values were obtained:
MlaE = biological target: B2; test: cryo-EM structure; nucleotide-free MlaFEDB in POPG nanodisc (MSP1D1), 4 mg/mL, 25 mM Tris pH 7.8, 150 mM NaCl; 2.9 Å; conditions: both partners purified
[1] = biological target: the molecule itself; test: as above
[2] = biological target: the molecule itself; test: cryo-EM structure; MlaFEQEDB (MlaF E170Q) in nanodisc, incubated with 2 mM ATP and 2 mM MgCl2 for 30 min at room temperature; two conformations, EQ_tall (4.3 Å) and EQ_close (3.7 Å)

Row | Binder | stoichiometry N [1] | further results
1 | B1 |  | stoichiometry N (MlaE): 3
2 | B2 | 2 | 
3 | B3 | 2 | 
4 | B4 |  | stoichiometry N [2]: 2
